Assay: soluble on expression in E. coli; label from the status in PepcDB or PDB records

Sequence | soluble on expression in E. coli
GPGSMLRRQLHLSAIGGVSAAAAAVLDGIGPSSAAAATGTLSSSSTSLSVMASVSPLLMPCRGVKLVNPIGKQGSQHYGLEPKLEAGRDTQLKHTEMYDGYTDDFGVFKEGPPVTLRLEYVRSPDHGYSQHILQKDIWSPFQVGANMMSYTPLYYDWKGFSSRDYFGHRSGTNPGSKVLLGHYRRDEVRSWGYRIMVNHKPQKRIPKWLACVVHIPRKKTFLGFFLYANGAYVAELLTYKQLPRIIYNKAFQGCLPTIGQTVSLTEVTYGKEIHSVEMYPGHGGVICRASGTAAVVLRGSEPNLVPLLLPSKEVRLFDNMCHAVFGRRAGVMYNKQRNFSKRSVEENMPHRPKVHSKTKRVSSHPAGGGNGGSPNLLTPLDWRIHPRNCVKTKYWLSGYILRGRQYNRNQTVADLKSKTYSWANRDPVYR | not soluble
MPAPLYGADDPLRCSGNSVSEVLDKFRKKYDLIMSLPQETKEEKEFRHCIWLAEKEEREQIYQTSIRPFRKATYTHFPEIDPRLRNYRSRYGAISND | not soluble
MGHHHHHHSHGTRVTLRFQMKMFESADSTATRSGQDLWAEICSCLPNPEQEDGANNAFSDSFVDSCPEGEGQREVADFAVQPAVKPWAPLQDSEVYLASLEKKLRRIKGLNQEVTSKDMLRTLAQAKKECWDRFLQEKLASEFFVDGLDSDESTLEHFKRWLQPDKVAVSTEEVQYLIPPESQVEKPVAEDEPAAGDKPAAAEQ | soluble
MQTDIHDEPVNLGFGVQFEPDDLYRLRSQFLPLGKIGGKPSWLNPKNLPKSADLLCNVCEKPLCFLMQVSANGGINDPPHAFHRSLFLFVCRNPSCSRTNDAANLKAFRCQLPRANDYYSFDGPMDPDLDGDVADPRAPADGPGLCRICGCSAAKKCAKCQVARYCSQAHQVIDWPAHKLECAKAATDGSITDEPKNPRNAFCFKEFGVEIDQEYMPANLFDGLSDDEGDEEEEEGNDEDETEEEKKARIREFEKFVKENKGKNADMTKEDLDEATAEQPKDIDFDKFNRLVNLQPDQIIRYKRYGQPLRATGLSELPEVVEPCELCGAPRRFEMQLMPHLLSLIDVDAIGQSIDWASVYVYTCSASCQIADDGYAKEFVAKQDFL | not soluble
RIQKLREATDKVASGDYDIHLENSYGDEIGVLASDFNIMAKKLKQSRDEIERLEKRRRQFIADVSHELKTPLTTINGLVEGLNSHTIPEDKKDKCFSLISEETKRMLRLVKENLDYEKIRSQQITLNKLDVPLIEVFEIVKEHLQQQAEEKQNKLMIQVEDHVIVHADYDRFIQILVNITKNSIQFTQNGDIWLRGMEGYKETIIEIEDTGIGIPKEDIEHIWERFYKADISRTNTAYGEYGLGLSIVRQLVEMHQGTVEIKSE | not soluble
MAHHHHHHMSAPTALTVPRRSASDAALADATRRELEEEMGRSDKPEQPTPPAGWQVVRKPGTCTFDLTKSFEGEDLVVRYSTNQDSDKANSHNIFVYITQKNGQTMQADLSIEEGELVLNNIRFYDEAALAKDTGAEAEAKRNELYTGPLVHELDYDLLNCVMTYLEKRGVDEKLGEFVVLYSFWAEQQDYEAWLTTMNKFAS | soluble
MSLIVVKIGGRVVKNSLDKIILDILNINDKVILVHGGGDIVTDYTKRLGIEPVFVTSPEGIRSRYTTKEELEVYIMAMSLINKSITSKLCSLGKNAIGITGVDGGLLLAERKKRIVVIDERGKKRIIEGGYTGKVKEVRSEIINHLVKLFDIIVVSPIALDVEERTPLNIDGDQAAFAISKALRANVLILLSDVEGVLVEGKVINRLTPSEAKELSKKIGPGMNRKLLMAAESVENGVNKVIIGSGVKDRPIINALELNGTVIANGEGHHHHHH | soluble
MAHHHHHHMDEKSEINYDEGADPSYSMHMSESHSAYEEVNKTSSDSEFVDDDYSKVISENNLESDNVKYNPDLYNLGKARQYLCPKVQEYGIPGQVSPYHFPYNEEDYLSNVDTEYDENGFPIRTNIDDNDNNEDNKKLWSWTNDGKLKLLCSQPIIPVSVVQGILRRDKIILIPQVEVTDVVIPKVYNQNIKHDVPTLNIEIMKSNVNIPNVKYVDKEIIIPIITGYTHKFVPKWDIHEVPRPVVKYIGEQKIVEVEVPEIKYIDKFVEREVIVDTVEKRVPKIIEVPKYVDEVKYVWKPIEKIVYVQKLIPKFDVNLECPPPLIVPYPVQRIKQISPVMVKKNNTEIPDYNYYDLNSPEGSLPIPEEYIHHYSRKQKMNKGLLSTCCDKKIVTEEEKNVQFVSVPLSNEHESVCVDEEIKKNINMSQENINTQLNNNMDNFIYDSDIKKNKDKMNSSINGKQQLYINS | not soluble
KEYFSVWMEDIIYFENSGRNVKIMTIDGTDLFVGNIKDIAKEVLPYGFIQISQSIIVNYNFVSKYSREEIILINKEKIAIPKNKRNGVKEQFL | not soluble
MHNKIVRIASSALTGGKLLEKLKPLTRWEVQWDPNKTKCLGITREVTFKDYETTWAFLTRVSMRSHLWGHHPLIHTSYTWVKLELHTHDIDPKDGAHSQLSDIDVRMAKRIDSYIDEMTT | not soluble
MAVPEGNSWTYTAASASITAPAQLVGNVGELQGAGSAVIWNVDVPVTGEYRINLTWSSPYSSKVNTLVMDGTALSYAFAEATVPVTYVQTKTLSAGNHSFGVRVGSSDWGYMNVHSLKLELLGGLTIRSPANLEHHHHHH | soluble
MGSDKIHHHHHHMTSYRIGIDVGGTHTDAVLLDETNQVMAETKAPTTEDVSRGIYQAMRDVIESAQVDRTRIDYAMLGTTHCTNAIVERKRLNTVGIIRIGAPATLAVKPLIGVPDDLRTLLGKHVYIVSGGHEFDGREIASLDEDHLYEIAHEIKGAVDSVAITSVFSPVSDNHEVRAAEIIREILGEAIPISLSKEIGSVGLLERENATILNASVVNVAQATAEGFVAALKEEGIEANVFFGQNDGTLMSVEYAKKYPILTIACGPTNSLRGASFLTGKENAIVVDVGGTTTDIGVLAQSFPRESSLAVEIGGARTNFRMPDLVSIGLGGGTIIRVNETDGTFTIGPESVGYRLPEKGLVFGGDTLTTTDVVVALGRANIGDRSKVAHLDKELLRRIYDRMVEMVEMAVDQMKTSSGDAPVILVGGGSILLPDQLRGASEVMKPEHLGVANAIGAAIAQVSGQIERVFSLDERGREQTLAYAKDLAREEAIKAGADPSDLTIVDVEDVPLAYLPGNATRIRVKAAGPLGSASAEQYEKGNVIP | not soluble
MSLGSMGFIESEVAVVYGRIVEGFRAPYKEDLYFKTVIVPGFSDGHMHTQVVDAGLEPSRVWSNSYEWLETRRLRVDEAAVRSDLDLSSRLAAAAFSRSLLEGVTLVAATGRLSANVRGWLSLTSRPRAIFLPTVMDRAGWPSIREVEVEIERLEGLLRDGLAKIGVFVHSLGTAKPESVRRALQTAARRRSIMGMHLSEGLPEAGRLVDVLGRGPYPARIVAVHCMEVEDLPTGVRCVSCPASNQILYRRTRPTLEGVDGFGSDWPLLIGTIARHLPLINKLYPGRLQEILYKATIGGYRAYLALHDGDFVAYDASLEDVLAGRALPVWVSVAGKPAVVEGRLSGSGYGYGEVLSIIRRLIKEALEKHGDGSLPYIPDVESMYEASLALEGGPRSEGHHHHHH | not soluble
MYSYKHPIYCANPVLSGQKIIELPPMNVPFSTYYEVYVTVQDHIPISSFVSMDLIMKNDNYSGGNFQVYSKDVSGILASHSNHFSPVTYSMQLQYEYKNWAEEDTQVRVYSDRLPPYWLPYCD | not soluble
MAPVVCDVCGVRRAVVLQRHTGRRLCRECFREDIVGRVRREVERWGMIGPGETVLLGLSGGKDSYVLLDALSEIVGPSRLVAVSIVEGIPGYNREGDIEKIRRVAAARGVDVIVTSIREYVGASLYEIYSRARGRGAGHAACTYCGISRRRILALYARLYGAHKVATAHNLDDEAQTAIVNFLRGDWVGMLKTHPLYRSGGEDLVPRIKPLRKVYEWETASYVVLHRYPIQEAECPFINMNPTLRARVRTALRVLEERSPGTLLRMMERLDEELRPLAQAMKPSSLGRCERCGEPTSPKRRLCKLCELLEEAGFQEPIYAIAGRGKRLRLQSPTASPG | not soluble
MVIRYDKAFIKDFKETDEGYLTITACPITRPGVFPYRRTDGGLSMEAKLPDELFSKATVLSANAKPMTDDHPTEPVTAANYNKYSKGMTHNDAHVLDNKLLVSFTITDAETIKKINDGKRELSIGFQADVSKETGVYNGMQYDSVQRNMQINHIAIVDEGRAGPEVAIRGDSVAFMIDTKDKQTGGNGMSKLIIDSKEFEVDSIVKAKFESLEAKLDAAEQRKANVEKLEGERDALKAQIDKLNKEIDEAKKKEVTADALDKRVQDRVDLINKAQKFLGDSVDFTGKSDREIKESVIAKTSPDFKGDGKSDDYIAAYFDSAVANVEKKGFTNPAAFNDAKDKDKEAAEDIEKQKNNRLNMNKKEDK | not soluble

Reference: the DeepSol protein solubility set
